Measured values taken from patent US20020058626A1, “Agents for preventing and treating thrombocytopenia” (CHUGAI SEIYAKU KABUSHIKI KAISHA, priority 1996, published 2002).

Columns and labels:
platelet count [1] = assay: Effectiveness of PTH derivative, daily administration to mouse (peripheral platelet count); format: in vivo; details: C57B1/6N mice, 200 μg/kg subcutaneous once a day for six days, 24 h after final administration; FIG. 3
Method: Ten-week old male C57B1/6N mice as purchased from Japan Charles River Co., Ltd. were used in the experiment.
Drug solutions to be administered were prepared basically from human PTH(1-84) and human PTH(1-34) by the same procedure as in Example 1 to give a drug concentration of 20 μg/mL.
Eighteen mice were divided into three groups, which were administered subcutaneously with the two drug solutions and a control (citrate buffer) for six days on a once-a-day basis in a volume of 10 mL/kg. […] The administration was initiated at 10 a.m.
After 24 h of the final administration, a blood sample was withdrawn from each mouse through the orbital vein. Peripheral corpuscle counts were obtained with an automatic corpuscle counter F-800 (TOA MEDICAL ELECTRONICS CO., LTD)

platelet counts = assay: Test for single-dose administration to mouse (peripheral platelet count); format: in vivo; details: C57B1/6N mice, single dose 10 μg/kg through the tail vein, 6 and 9 h after the administration; FIG. 1
Method: Nine-week old male C57B1/6N mice as purchased from Japan Charles River Co. Ltd. were used in the experiment.
Human PTH(1-84) was dissolved in a citrate buffer (pH 5; containing 0.05% of Tween 80) at final concentrations of 1, 0.2 and 0.04 ˜g/mL so as to prepare the drug solutions to be administered.
Each of the thus prepared drug solutions and a control (citrate buffer) was administered to 15 mice through the tail vein in a volume of 10 mL/kg. […] The administration was initiated at 10 a.m.
After 3, 6 and 9 hours of the administration, five mice were picked up at random from each group of animals and blood samples were withdrawn through the orbital vein. At 10 a.m. on the same day, separate blood samples were taken from untreated mice (four in number) to obtain the preadministration value. Peripheral corpuscle counts were obtained with an automatic corpuscle counter F-800 (TOA MEDICAL ELECTRONICS CO., LTD.)

platelet count [2] = assay: Test for daily administration to mouse (peripheral platelet count); format: in vivo; details: C57B1/6N mice, subcutaneous once a day, FIG. 2
Method: Nine-week old male C57B1/6N mice as purchased from Japan Charles River Co., Ltd. were used in the experiment.
Drug solutions to be administered were prepared basically by the same procedure as in Example 1 to give drug concentrations of 5, 20 and 80 μg/mL.
The mice under test were divided into four groups, which were administered subcutaneously with the three drug solutions and a control (citrate buffer) once a day in a volume of 10 mL/kg. […] The administration was initiated at 10 a.m.
On days 5, 7 and 9 after the start of administration, five or six mice were picked up at random from each group of animals and blood samples were withdrawn through the orbital vein. The sampling of blood was timed to occur 24 h of the final administration. Separate blood samples were taken from untreated mice (five in number) to obtain the value for normal mouse. Peripheral corpuscle counts were obtained with an automatic corpuscle counter F-800(TOA MEDICAL ELECTRONICS CO., LTD.).

platelet count [3] = assay: Test for daily administration to rabbit (platelet count); format: in vivo; details: three rabbits, FIG. 4
Method: Six 12-15 week old male Japanese albino rabbits JW/CSK were used in the experiment. The animals were individually kept in aluminum rabbit bracket cages Rb-1 (350^w×500^d×350^h mm) in a vavarium in a specific pathogen-free environment under the following conditions: temperature, 24±2° C.; humidity, 50±10%; illumination, light turned on at 5:00 and turned off at 19:00; ventilation, 15 changes/hr. Each animal was supplied with 120 g of a radiation-sterilized feed for rabbits RM (purchased from Funahashi Farm) per day. The animals were also allowed to drink to tap water ad libitum from an automatic water feeder.
Human PTH(1-84) was administered in a volume of 2 mL/vial at a concentration of 200 μg/mL. A solvent was also supplied in a volume of 2 mL/vial. Both the drug and the control were stored at −135° C. until use.
PTH (200 μg/kg) was administered to the rabbits subcutaneously at the back of their neck for 13 consecutive days. The solvent was similarly administered in the same volume as the dose of a rh-PTH solution calculated from their body weight.
Blood samples (0.5 mL) were withdrawn from the rabbits through the lateral auricular vein before the administration and on days 2, 6, 9 and 13 during the administration period. […]

[4] = tested on: BFU-E (precursor cells of erythrocytes); details: report by Meytes et al, J. Clin. Invest. Vol. 67, 1263-1269:1981; cited from earlier work
[5] = tested on: CFU-GM (precursor cells of granulocytes and macrophages); details: report by Meytes et al, J. Clin. Invest. Vol. 67, 1263-1269:1981; cited from earlier work

## human PTH(1-34) (SVSEIQLMHNLGKHLNSMERVEWLRKKLQDVHNF; Parathyroid hormone; UniProt P01270 32-65, looked up, fragment) [PTH(134), partial peptide of PTH composed of 34 amino acids from the N terminus; purchased from Peptide Institute, Inc]
Platelet count [1]
  platelet increasing action compared with PTH(1-84): comparable platelet increasing action to PTH(1-84)

B1: human PTH(1-84) (protein, UniProt P01270 32-115, looked up)
Parathyroid hormone: SVSEIQLMHNLGKHLNSMERVEWLRKKLQDVHNFVALGAPLAPRDAGSQRPRKKEDNVLVESHEKSLGEADKADVNVLTKAKSQ
modifications: Parathyroid hormone
Platelet counts
  platelet counts versus control: significant increase in platelet counts over the control
Platelet count [2]; 200 and 800 μg/kg groups only, day 5, 24 h after final administration
  platelet count versus control, day 5: tendency to increase
Platelet count [2]; all treated groups (50, 200 and 800 μg/kg), day 7
  platelet count versus control, day 7: significantly higher in platelet count than the control
Platelet count [3]; 200 μg/kg subcutaneous daily for 13 days, day 13
  platelet count on day 13: substantially returned to the initial level
Platelet count [3]; 200 μg/kg subcutaneous daily
  platelet count relative to the initial value, increase from day 2 until day 6: two to four
[4]
  in vitro colony formation by BFU-E: interfered with
[5]
  in vitro colony formation by CFU-GM: interfered with
